{"source": "patent US20200392227A1", "about": "(LYVGEN BIOPHARMA, published 2020)", "key": {"[1]": {"molecular_target": "T1, human FcγRI expressed on CHO cells (human, UniProt P12314 16-374)", "T1 construct": "whole, on cells", "T1 sequence (P12314 16-374)": "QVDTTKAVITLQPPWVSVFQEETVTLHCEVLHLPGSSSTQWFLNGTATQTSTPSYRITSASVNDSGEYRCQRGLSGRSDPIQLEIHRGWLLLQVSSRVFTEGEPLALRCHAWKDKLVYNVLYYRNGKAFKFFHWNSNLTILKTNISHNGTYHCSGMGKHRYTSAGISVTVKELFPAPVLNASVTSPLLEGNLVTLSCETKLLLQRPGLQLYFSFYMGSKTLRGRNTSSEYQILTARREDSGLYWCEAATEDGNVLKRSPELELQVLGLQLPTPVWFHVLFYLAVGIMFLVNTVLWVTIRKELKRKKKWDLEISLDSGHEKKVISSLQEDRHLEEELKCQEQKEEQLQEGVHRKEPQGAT", "experiment": "FACS, CHO cells expressing FcγRI", "how_it_was_run": "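Trypsin-harvested CHO cells overexpressing each FcγR were incubated 2 h at 4 °C with IgG mutants in 3% BSA/PBS. Bound IgG was detected with PE-labeled anti-human IgG (2 h, 4 °C), then cells were fixed in 2% PFA and analysed by flow cytometry.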"}, "[2]": {"molecular_target": "T2, human FcRIIB/C protein (MednaBio, E1034) (human, UniProt P31994 43-217, limits assumed)", "T2 construct": "Bought as FcRIIB/C; also called FcγRIIB; CD32B", "T2 sequence (looked up)": "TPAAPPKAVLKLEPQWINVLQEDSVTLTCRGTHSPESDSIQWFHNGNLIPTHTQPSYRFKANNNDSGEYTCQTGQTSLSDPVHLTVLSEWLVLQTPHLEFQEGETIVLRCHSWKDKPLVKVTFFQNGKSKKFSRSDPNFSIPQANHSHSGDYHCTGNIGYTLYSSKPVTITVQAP", "experiment": "BLI"}, "[3]": {"molecular_target": "T3, human FcRn protein (MednaBio, E1032) (human, UniProt P55899 24-297; P61769 21-119)", "T3 construct": "Bought; assays at pH 6", "T3 sequence (P55899 24-297 limits assumed, form in doubt, chain 1 of 2)": "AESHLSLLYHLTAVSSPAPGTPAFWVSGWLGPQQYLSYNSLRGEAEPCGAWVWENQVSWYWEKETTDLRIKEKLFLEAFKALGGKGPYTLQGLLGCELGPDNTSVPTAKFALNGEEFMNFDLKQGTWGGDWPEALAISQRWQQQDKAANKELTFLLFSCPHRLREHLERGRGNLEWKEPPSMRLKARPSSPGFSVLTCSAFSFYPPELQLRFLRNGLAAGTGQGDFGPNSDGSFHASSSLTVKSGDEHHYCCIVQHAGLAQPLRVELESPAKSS", "T3 sequence (P61769 21-119 limits assumed, form in doubt, chain 2 of 2)": "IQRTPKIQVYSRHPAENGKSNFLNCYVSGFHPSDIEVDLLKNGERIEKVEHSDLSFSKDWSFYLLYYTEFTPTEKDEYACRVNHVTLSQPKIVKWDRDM", "experiment": "BLI"}, "[4]": {"molecular_target": "T4, human FcRI protein (MednaBio, E1031) (human, UniProt P12314 16-288, limits assumed)", "T4 construct": "Bought; loaded on anti-penta-HIS biosensors; also called FcγRI", "T4 sequence (P12314 16-288 limits assumed)": "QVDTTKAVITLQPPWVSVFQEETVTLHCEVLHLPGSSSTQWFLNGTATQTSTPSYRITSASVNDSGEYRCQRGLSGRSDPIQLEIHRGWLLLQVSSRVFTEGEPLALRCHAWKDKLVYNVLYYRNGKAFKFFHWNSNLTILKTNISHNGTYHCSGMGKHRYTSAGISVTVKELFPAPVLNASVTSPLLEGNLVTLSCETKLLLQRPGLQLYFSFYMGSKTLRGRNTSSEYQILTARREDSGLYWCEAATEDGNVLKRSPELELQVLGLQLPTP", "experiment": "BLI"}, "[5]": {"molecular_target": "T5, human FcRIIIA-V158 protein (MednaBio, E1035) (human, UniProt P08637 17-208)", "T5 construct": "Bought; also called FcγRIIIA(V); FcgRIIIA(V)", "T5 sequence (P08637 17-208 F176V)": "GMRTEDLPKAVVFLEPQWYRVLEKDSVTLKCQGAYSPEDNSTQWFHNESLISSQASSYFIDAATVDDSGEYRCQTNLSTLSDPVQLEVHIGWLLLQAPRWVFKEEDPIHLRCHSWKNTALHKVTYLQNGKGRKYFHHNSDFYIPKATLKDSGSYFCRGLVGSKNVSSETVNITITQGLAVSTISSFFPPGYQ", "experiment": "BLI"}, "[6]": {"molecular_target": "T6, human FcRIIA protein (MednaBio, E1033) (human, UniProt P12318 34-218, limits assumed)", "T6 construct": "Bought; also called FcγRIIA", "T6 sequence (looked up)": "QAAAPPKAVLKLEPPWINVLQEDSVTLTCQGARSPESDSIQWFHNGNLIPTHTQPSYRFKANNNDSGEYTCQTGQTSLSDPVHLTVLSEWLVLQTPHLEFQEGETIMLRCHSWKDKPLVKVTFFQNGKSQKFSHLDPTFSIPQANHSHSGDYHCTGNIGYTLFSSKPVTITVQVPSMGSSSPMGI", "experiment": "BLI"}, "[7]": {"molecular_target": "T7, human FcRIIIA-F158 protein (MednaBio, E1036) (human, UniProt P08637 17-208)", "T7 construct": "Bought; also called FcγRIIIA(F)", "T7 sequence (P08637 17-208 limits assumed)": "as the sequence (P08637 17-208 F176V) above, with V160F counted along it", "experiment": "BLI"}, "[8]": {"molecular_target": "T8, human FcγRIIB expressed on CHO cells (human, UniProt P31994 43-310)", "T8 construct": "whole, on cells; also called CD32B", "T8 sequence (looked up)": "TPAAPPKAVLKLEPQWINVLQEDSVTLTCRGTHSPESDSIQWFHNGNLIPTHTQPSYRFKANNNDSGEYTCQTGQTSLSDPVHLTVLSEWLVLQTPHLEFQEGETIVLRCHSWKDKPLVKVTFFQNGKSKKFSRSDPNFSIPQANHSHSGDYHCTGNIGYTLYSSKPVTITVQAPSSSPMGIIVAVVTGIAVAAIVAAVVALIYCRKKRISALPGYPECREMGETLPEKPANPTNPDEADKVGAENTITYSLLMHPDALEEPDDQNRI", "experiment": "FACS, CHO cells expressing FcγRIIB", "procedure": "(§1) For FACS analysis of the IgG mutants' binding to different FcγRs, FcγR overexpressing CHO cells were harvested using trypsin-EDTA and were suspended in cold staining buffer (3% BSA in PBS). Test IgG mutants, which were diluted in staining buffer, were added into the cells. The mixture was incubated 4° C. for 2 hours, and then washed twice with cold staining buffer and re-suspended in PE-labeled anti-human IgG followed by incubation at 4° C. for 2 hours. The mixture was washed twice with staining buffer and re-suspended in 2% PFA in PBS for FACS."}, "[9]": {"molecular_target": "T9, human FcγRIIA(H131) expressed on CHO cells (human, UniProt P12318 34-317)", "T9 construct": "whole, on cells", "T9 sequence (looked up)": "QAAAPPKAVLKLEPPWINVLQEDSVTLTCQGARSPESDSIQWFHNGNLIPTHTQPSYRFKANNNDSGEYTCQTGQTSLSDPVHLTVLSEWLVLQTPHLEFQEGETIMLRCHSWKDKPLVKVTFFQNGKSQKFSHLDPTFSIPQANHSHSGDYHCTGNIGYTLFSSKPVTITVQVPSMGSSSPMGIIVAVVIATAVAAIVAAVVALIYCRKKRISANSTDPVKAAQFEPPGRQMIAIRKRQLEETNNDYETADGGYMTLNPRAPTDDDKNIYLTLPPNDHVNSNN", "experiment": "FACS, CHO cells expressing FcγRIIA(H131)", "procedure": "as §1"}, "[10]": {"molecular_target": "T10, human FcγRIIA(R131) expressed on CHO cells (human, UniProt P12318 34-317)", "T10 construct": "whole, on cells", "T10 sequence (looked up)": "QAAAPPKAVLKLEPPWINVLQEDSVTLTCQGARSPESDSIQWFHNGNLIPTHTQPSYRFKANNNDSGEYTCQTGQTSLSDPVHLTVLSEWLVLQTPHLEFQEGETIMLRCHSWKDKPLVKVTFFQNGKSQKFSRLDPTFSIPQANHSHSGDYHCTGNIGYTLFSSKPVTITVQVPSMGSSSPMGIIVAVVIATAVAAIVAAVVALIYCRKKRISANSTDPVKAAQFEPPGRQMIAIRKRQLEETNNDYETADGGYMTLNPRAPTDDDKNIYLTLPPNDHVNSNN", "experiment": "FACS, CHO cells expressing FcγRIIA(R131)"}, "[11]": {"molecular_target": "T11, human FcγRIIC expressed on CHO cells (human, UniProt P31995 43-323)", "T11 construct": "whole, on cells", "T11 sequence (looked up)": "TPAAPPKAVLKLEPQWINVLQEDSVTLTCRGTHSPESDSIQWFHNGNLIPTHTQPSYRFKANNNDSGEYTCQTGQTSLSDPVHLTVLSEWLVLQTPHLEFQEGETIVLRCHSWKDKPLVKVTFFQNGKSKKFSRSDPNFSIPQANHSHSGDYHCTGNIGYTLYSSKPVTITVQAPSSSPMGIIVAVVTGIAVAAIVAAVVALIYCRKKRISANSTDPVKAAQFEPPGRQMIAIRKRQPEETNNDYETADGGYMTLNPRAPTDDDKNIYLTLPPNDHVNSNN", "experiment": "FACS, CHO cells expressing FcγRIIC"}}, "data": [{"binder": "anti-CD137 IgG2 with Fc variant G2m1 (antibody, copies: 2 + 2) heavy: EVQLVQSGAEVKKPGESLRISCKGSGYSFSTYWISWVRQMPGKGLEWMGKIYPGDSYTNYSPSFQGQVTISADKSISTAYLQWSSLKASDTAMYYCARGYGIFDYWGQGTLVTVSSASTKGPSVFPLAPCSRSTSESTAALGCLVKDYFPEPVTVSWNSGALTSGVHTFPAVLQSSGLYSLSSVVTVPSSNFGTQTYTCNVDHKPSNTKVDKTVERKCCVECPPCPAPPVASVFLFPPKPKDTLMISRTPEVTCVVVDVSHEDPEVQFNWYVDGVEVHNAKTKPREEQFNSTFRVVSVLTVVHQDWLNGKEYKCKVSNKGLPAPIEKTISKTKGQPREPQVYTLPPSREEMTKNQVSLTCLVKGFYPSDIAVEWESNGQPENNYKTTPPMLDSDGSFFLYSKLTVDKSRWQQGNVFSCSVMHEALHNHYTQKSLSLSPGK light: SYELTQPPSVSVSPGQTASITCSGDNIGDQYAHWYQQKPGQSPVLVIYQDKNRPSGIPERFSGSNSGNTATLTISGTQAMDEADYYCATYTGFGSLAVFGGGTKLTVLGQPKAAPSVTLFPPSSEELQANKATLVCLISDFYPGAVTVAWKADSSPVKAGVETTTPSKQSNNKYAASSYLSLTPEQWKSHRSYSCQVTHEGSTVEKTVAPTECS", "values": [{"measurement": "binding result", "setting": "[1]", "value": "no binding (tested: 10 ug/ml)"}, {"measurement": "binding result", "setting": "[2]", "value": "no binding (tested: 300 nM)"}, {"measurement": "Kd", "setting": "[3]", "value": 5.5, "unit": "nM"}, {"measurement": "koff", "setting": "[3]", "value": 0.00096, "unit": "s⁻¹"}, {"measurement": "kon", "setting": "[3]", "value": 170000, "unit": "M⁻¹ s⁻¹"}, {"measurement": "binding result", "setting": "[4]", "value": "no binding (tested: 300 nM)"}, {"measurement": "binding result", "setting": "[5]", "value": "no binding (tested: 300 nM)"}, {"measurement": "binding result", "setting": "[6]", "value": "no binding (tested: 300 nM)"}, {"measurement": "binding result", "setting": "[7]", "value": "no binding (tested: 300 nM)"}, {"measurement": "binding result", "setting": "[8]", "value": "no binding (tested: 10 ug/ml)"}, {"measurement": "binding result", "setting": "[9]", "value": "no binding (tested: 10 ug/ml)"}, {"measurement": "binding result", "setting": "[10]", "value": "no binding (tested: 10 ug/ml)"}, {"measurement": "binding result", "setting": "[11]", "value": "no binding (tested: 10 ug/ml)"}]}]}
